From patent US20220168438A1 (Daiichi Sankyo, published 2022)

What was measured:
[1] = biological target: T1, human CLDN6 (human, UniProt P56747 1-220); test: flow cytometry on transiently transfected 293T cells, 0.8-100 nM
T1 construct: Four-transmembrane protein; It was expressed on 293T cells from human CLDN6/pCMV-Entry (OriGene) and on CHO-K1 cells by cDNA transfection; it was endogenous in the NTERA-2 lysate used for immunoprecipitation; also called claudin-6; human claudin-6
T1 sequence: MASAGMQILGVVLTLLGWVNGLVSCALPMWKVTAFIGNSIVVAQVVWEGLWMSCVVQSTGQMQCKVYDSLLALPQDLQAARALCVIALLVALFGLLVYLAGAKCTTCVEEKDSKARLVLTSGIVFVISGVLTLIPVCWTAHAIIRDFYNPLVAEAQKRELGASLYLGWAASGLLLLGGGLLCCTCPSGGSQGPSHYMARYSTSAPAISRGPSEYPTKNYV
Description: (§1) The binding activity of the humanized anti-CLDN6 antibody produced in Example 10 to human CLDN6 and its family molecules, CLDN3, CLDN4, and CLDN9, was evaluated by using a flow cytometry method. Used were 293T cells transiently transfected in the same manner as in Example 7-1. To cells into which a human CLDN6 or human CLDN9 gene had been transferred, the humanized anti-CLDN6 antibody H1L1, H2L2, H1L3, H2L4, or H3L3, or a human IgG1 control antibody (Calbiochem) was added and suspended to a final concentration of 100 nM, 20 nM, 4 nM, or 0.8 nM, and the resultant was left to stand at 4° C. for 30 minutes. To cells into which a human CLDN3 or human CLDN4 gene, or an empty vector had been transferred, the humanized anti-CLDN6 antibody H1L1, H2L2, H1L3, H2L4, or H3L3 was added and suspended to a final concentration of 100 nM, and the resultant was left to stand at 4° C. for 30 minutes. The cells were washed with Dulbecco's phosphate buffered saline (Sigma-Aldrich Co. LLC) containing 5% fetal bovine serum (Hyclone) (hereinafter, referred to as 5% FBS-containing PBS), and FITC AffiniPureF (ab′)2 Fragment Goat Anti-Human IgG (H+L) (Jackson ImmunoResearch Laboratories Inc.) 150-fold diluted with 5% FBS-containing PBS was then added thereto, and the cells were suspended and left to stand at 4° C. for 30 minutes. After washing with 5% FBS-containing PBS, detection was carried out by using a flow cytometer (FC500; Beckman Coulter, Inc.). Data analysis was carried out by using FlowJo (Tree Star, Inc.), and mean fluorescence intensity (MFI) of FITC, which indicates the amount of the binding antibody, was calculated. […] In each graph in FIG. 13, the abscissa represents antibody concentrations and the ordinate represents MFI.

[2] = biological target: T2, human CLDN9 (human, UniProt O95484 1-217); test: as above
T2 construct: Expressed on 293T cells from human CLDN9/pCMV6-Entry (OriGene); Transfection was confirmed with an anti-FLAG antibody
T2 sequence: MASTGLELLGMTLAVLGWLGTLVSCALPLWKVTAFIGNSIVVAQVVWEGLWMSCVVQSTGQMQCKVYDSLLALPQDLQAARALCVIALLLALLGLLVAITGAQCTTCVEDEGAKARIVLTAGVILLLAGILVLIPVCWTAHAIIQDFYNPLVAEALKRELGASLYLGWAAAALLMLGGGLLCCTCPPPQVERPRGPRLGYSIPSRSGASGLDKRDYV
Description: as §1

[3] = biological target: T3, human CLDN3 (human, UniProt O15551 1-220); test: flow cytometry on transiently transfected 293T cells
T3 construct: whole, on cells
T3 sequence (looked up): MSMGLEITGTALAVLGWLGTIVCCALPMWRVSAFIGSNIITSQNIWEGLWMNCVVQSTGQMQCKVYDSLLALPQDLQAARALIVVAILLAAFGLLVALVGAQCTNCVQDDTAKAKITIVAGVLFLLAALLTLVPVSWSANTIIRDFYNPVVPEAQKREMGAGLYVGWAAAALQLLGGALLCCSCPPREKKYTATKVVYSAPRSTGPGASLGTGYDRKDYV
Description: (§2) Binding activity of the mouse anti-CLDN6 antibodies produced in Example 6 to human CLDN6 and its family molecules, CLDN3, CLDN4, and CLDN9, was evaluated by using a flow cytometry method. Human CLDN3/pCMV6-Entry, human CLDN4/pCMV6-Entry, human CLDN6/pCMV-Entry, human CLDN9/pCMV6-Entry, or pCMV6-Entry purchased from OriGene Technologies, Inc. was transiently transferred into 293T cells (Thermo Fisher Scientific, HCL4517) by using Lipofectamine 2000 (Thermo Fisher Scientific), and the cells were cultured under conditions of 37° C. and 5% CO₂ overnight, and then a cell suspension was prepared. The transfected 293T cell suspension was centrifuged to remove the supernatant, and a mouse anti-CLDN6 antibody (clone number: B1 or C7) or a mouse IgG1 control antibody (R&D Systems, Inc.) was then added and suspended to a final concentration of 30 μg/mL, 10 μg/mL, 3.3 μg/mL, or 1.1 μg/mL, and the resultant was left to stand at 4° C. for 1 hour. The cells were washed twice with Dulbecco's phosphate buffered saline (Sigma-Aldrich Co. LLC) containing 5% fetal bovine serum (Hyclone) (hereinafter, referred to as 5% FBS-containing PBS), and FLUORESCEIN-CONJUGATED GOAT IGG FRACTION TO MOUSE IGG (WHOLE MOLECULE) (MP Biomedicals, Inc.) 500-fold diluted with 5% FBS-containing PBS was then added thereto, and the cells were suspended and left to stand at 4° C. for 1 hour. After washing twice with 5% FBS-containing PBS, detection was carried out by using a flow cytometer (FC500; Beckman Coulter, Inc.). Data analysis was carried out by using FlowJo (Tree Star, Inc.). To confirm each transfection, the cells were permeabilized with 0.25% Tween 20-containing PBS, and then a mouse anti-FLAG antibody (Sigma-Aldrich Co. LLC) was used. […] In each graph in FIG. 11, the ordinate represents FITC fluorescence intensity indicating the amount of the binding antibody and the abscissa represents antibody concentrations.
(§3) The binding activity of the humanized anti-CLDN6 antibody produced in Example 10 to human CLDN6 and its family molecules, CLDN3, CLDN4, and CLDN9, was evaluated by using a flow cytometry method.

[4] = biological target: T4, human CLDN4 (human, UniProt O14493 1-209); test: as above
T4 construct: whole, on cells
T4 sequence (looked up): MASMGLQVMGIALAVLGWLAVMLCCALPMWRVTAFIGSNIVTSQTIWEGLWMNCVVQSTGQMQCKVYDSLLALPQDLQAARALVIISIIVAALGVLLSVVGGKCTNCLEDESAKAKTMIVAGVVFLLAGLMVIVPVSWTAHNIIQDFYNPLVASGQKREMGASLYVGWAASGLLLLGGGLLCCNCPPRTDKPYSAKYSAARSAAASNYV
Description: as §2, §3

Row | binding result [1] | binding result [2] | binding result [3] | binding result [4] | Binder
1 | binds | binds | no binding (tested: 100 nM) | no binding (tested: 100 nM) | humanized anti-CLDN6 antibody H1L1 (antibody, human IgG1, kappa, L234A L235A, V domains shown, Human IgG1 LALA heavy chain and human kappa light chain; also called H1L1 antibody; hH1 + hL1) VH: QVQLVQSGAEVKKPGASVKVSCKASGYTFTEYTMHWVRQAPGQGLEWMGGVNPNSGDTSYAQKFQGRVTITADTSTSTAYMELSSLRSEDTAVYYCARPGGYDVGYYAMDYWGQGTLVTVSS VL: DIQMTQSPSSLSASVGDRVTITCRASQDINNYLNWYQQKPGKAPKLLIYFTSRLHSGVPSRFSGSGSGTDYTLTISSLQPEDFATYYCQQGYPLPWTFGQGTKVEIKR
2 | binds | binds | no binding (tested: 100 nM) | no binding (tested: 100 nM) | humanized anti-CLDN6 antibody H2L4 (antibody, human IgG1, kappa, L234A L235A, V domains shown, Human IgG1 LALA heavy chain and human kappa light chain; also called H2L4 antibody; hH2 + hL4) VH: EVQLVQSGAEVKKPGASVKVSCKTSGYTFTEYTMHWVRQAPGKSLEWMGGVNPNSGDTSYAQKFQGRVTITADTSTSTAYMELSSLRSEDTAVYYCARPGGYDVGYYAMDYWGQGTLVTVSS VL: DIQMTQSPSSLSASVGDRVTITCRASQDINNYLNWYQQKPGGAVKLLIYFTSRLHSGVPSRFSGSGSGTDYTLTISSLQPEDFATYYCQQGNTLPWTFGGGTKVEIKR

The remaining lines, values behind:

Row | Binder | binding result [1] | binding result [2] | binding result [3] | binding result [4]
3 | humanized anti-CLDN6 antibody H2L2 (antibody, human IgG1, kappa, L234A L235A, V domains shown, Human IgG1 LALA heavy chain and human kappa light chain; also called H2L2 antibody; hH2 + hL2) VH: EVQLVQSGAEVKKPGASVKVSCKTSGYTFTEYTMHWVRQAPGKSLEWMGGVNPNSGDTSYAQKFQGRVTITADTSTSTAYMELSSLRSEDTAVYYCARPGGYDVGYYAMDYWGQGTLVTVSS VL: DIQMTQSPSSLSASVGDRVTITCRASQDINNYLNWYQQKPGKAVKLLIYFTSRLHSGVPSRFSGSGSGTHYTLTISSLQPEDFATYYCQQGYPLPWTFGQGTKVEIKR | binds | binds | no binding (tested: 100 nM) | no binding (tested: 100 nM)
4 | humanized anti-CLDN6 antibody H3L3 (antibody, human IgG1, kappa, L234A L235A, V domains shown, Human IgG1 LALA heavy chain and human kappa light chain; also called H3L3 antibody; hH3 + hL3) VH: EVQLVQSGAEVKKPGASVKVSCKTSGYTFTEYTMHWVRQAPGQGLEWMGGVNPNSGDTSYAQKFQGRVTLTVDKSTSTAYMELSSLRSEDTAVYYCARPGGYDVGYYAMDYWGQGTLVTVSS VL: DIQMTQSPSSLSASVGDRVTITCRASQDINNYLNWYQQKPGGAVKLLIYFTSRLHSGVPSRFSGSGSGTDYTLTISSLQPEDFATYYCQQGYPLPWTFGGGTKVEIKR | binds | binds | no binding (tested: 100 nM) | no binding (tested: 100 nM)
